Data as given in the nanobody polyreactivity screen of Harvey et al. (2022).

Assay: yeast display, Sf9 membrane polyspecificity reagent, FACS + sequencing; frameworks hold sequencing errors
Summary of the method: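 In a synthetic yeast display library (Saccharomyces cerevisiae BJ5465), nanobody expression was induced with galactose for 36–48 hours. FACS gates were set low and high (top ~1%) using anti-HA fluorescence for expression and streptavidin fluorescence for binding of the Sf9 membrane reagent. Each polyreactivity label is drawn from the gate of origin.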

Row | Sequence | polyreactivity (PSR sort gate)
1 | QVQLVESGGGLVQAGGSLRLSCAASGRIYDVYAMGWYRQAPRKERELVATITGSGGGTYYADSVKGRFTISRDNAKNTVYLQMNSLKPEDTAVYYCAADYYPTYAYYVSNVGYDYWGQGTQVNVSS | low polyreactivity
2 | QVQLVESGGGLVQAGGSLRLSCAASGRIYEYMGWYRQAPGKERELVAAISWRGGRTYYADSVKGRFTISRDNAKNTVYLQMNSLKPEDTAVYYCAAKTTYRYGYWGQGTQVTVSS | high polyreactivity
3 | QVQLVESGGGLVQAGGSLRLSCAASGRIYFYNALGWYRQAPGKERELVATITRSGGRTYYADSVKGRFTISRDNAKNTVYLQMNSLKPEDTAVYYCAAYPTNNLYPNLEYWGQGTQVTVSS | high polyreactivity
4 | QVQLVESGGGLVQAGGSLRLSCAASGRIYIIYAMGWYRQAPRKEREMVAAITRSGGRTFYADSVKGRFTISRDNAKNTVYLQMNSLKPEDTAVYYCAAAFGRVTKYGYRNQYGYWGQGTQVTVSS | high polyreactivity
5 | QVQLVESGGGLVQAGGSLRLSCAASGRIYLGNVMGWYRQAPGKERELVAAISWSAGSTYYSDSVKGRFTISRDNAKITVYLQMNSLKPEDTAVYYCAAVYLWWSYEFDYWGQGTQVTVSS | low polyreactivity
6 | QVQLVESGGGLVQAGGSLRLSCAASGRIYLYAMGWYRQTPGKERELVAAISYSGGSTYYADSVKGRFTISRDYAKNTVYLQMNCLKPEDTAVYYWASEAGSYWGKGTQVTVSS | high polyreactivity
7 | QVQLVESGGGLVQAGGSLRLSCAASGRIYSNYAIGWYRQAPGKERELVAAITSGGRTNYADSVKGRFTISRDNAKNTVYLQMNSLKRDDTAVYYCDAETTPYQPDGFDEYYYWGQGTQVTVSS | high polyreactivity
8 | QVQLVESGGGLVQAGGSLRLSCAASGRIYTRNTMGWYRQAPGKERELVAAITSRGGSTYYADSVKGRFTISRDNAKNTVYLQMNSLKPEDTAVYYCAADKPRSYYYWGLGTQVTVSS | high polyreactivity
9 | QVQLVESGGGLVQAGGSLRLSCAASGRIYVYYVLGWYRQAPGKERELVAAITYSGGSTYYADSVKGRFTISRDNAKNTVYLQMNSLKPEDTAVYYCNKVDAFGIVRLYYWGQGTQVTVSS | low polyreactivity
10 | QVQLVESGGGLVQAGGSLRLSCAASGRIYYRYGMGWYRQAPGKERELVAAISRTGGSTYYADSVKGRFTISRDNAKNTVYLQMNSLIPEDTAVYYCNATSNYRYDYWGQGTQVTVSS | low polyreactivity
11 | QVQLVESGGGLVQAGGSLRLSCAASGRMFGAYGMGWYRQAPGKERELVAAISNGGRTSYADSVKGRFTISRDNAKNTVYLQMNSLKPEDTAVYYCAAVQLAYTYYWYNDWGQGTQVTVSS | high polyreactivity
12 | QVQLVESGGGLVQAGGSLRLSCAASGRNFAWYAMGWYRQAPGKERELVAAISWSSDTTYYADSVKGRFTISRDNAKNTVYLQMNSLKPEDTAVYYCAAVFQGYTRKYYYWGQGTQVTVSS | high polyreactivity
13 | QVQLVESGGGLVQAGGSLRLSCAASGRNFDKYTMGWYRQAPGKERELVAAISKSGSGTFYADSVKGRFTISRDNAKNTVYLQMNRLKPEDTAVYYCARVYTVGTGRSWRLDYWGQGTQVTVSS | high polyreactivity
14 | QVQLVESGGGLVQAGGSLRLSCAASGRNFGAYTMGWYRQAPGKESELVAAISSSGGRTYYADSVKGRYTISRDNAKNTVYLQMNSLKPEDTAVYYCAASYSGRKDRYPHYDYWGQGTQVTVSS | low polyreactivity
15 | QVQLVESGGGLVQAGGSLRLSCAASGRNFGDYAMGWYRQAPGKERELVAAISSSGGRTYYADSVKGRFTISRDNAKNTVYLQMNSLQPEDTAVYYCAAQSKYYQYYSWGQGTQVTVSS | high polyreactivity
16 | QVQLVESGGGLVQAGGSLRLSCAASGRNFGLYAMGWYRQAPGTERELVAAISWGGGRTYYADSVKGRFTISRDNAKNTVYLQMNSLKPEDTAVYYCNAVYSPRYYVGGYDYWGQGTQVTVSS | high polyreactivity
17 | QVQLVESGGGLVQAGGSLRLSCAASGRNFGRYAMGWYRQAPGKEMELVAAISGSGGTTYYADSVKGRFTISRDNAKNTVYLQMNSLKPEDTAVYYCAARYWVGKVWKYDYWGQGTQVTVSS | high polyreactivity
18 | QVQLVESGGGLVQAGGSLRLSCAASGRNFGSYAMGWYRQAPGKERELVAGIRSVGSTNYADSVKGRFTISRDNAKNTVYLQMNSLKPEDTAVYYCAARLWHLSYAGQGGDYWGQGTQVTVSS | low polyreactivity
19 | QVQLVESGGGLVQAGGSLRLSCAASGRNFGTNAMGWYRQAPGKERELVASIDLSADSTYYADSVKGRFTISRDNAKNTVYLQMNSLKPEDTAVYYCNKDGYPWPPNLDYWGQGTQVTVSS | low polyreactivity
20 | QVQLVESGGGLVQAGGSLRLSCAASGRNFKYNAMGWYRQAPGKERELVAVITSGGSTYYADSVKGRFTISRDNAKNTVYLQMNSLKPEDTAVYYCAKKYYKVHKFDYWGQGTQVTVSS | low polyreactivity
21 | QVQLVESGGGLVQAGGSLRLSCAASGRNFPLNGMGWYRQAPGKERELVAAISYRGGSTYYADSVKGRFTISRDNPKNTVYLQMNSLKPEDTAVYYCAADYVSRRYYYWGQGTQVTVSS | high polyreactivity
22 | QVQLVESGGGLVQAGGSLRLSCAASGRNFRDYDMGWYRQAPGKERELGAAITYDGYSTYYADSVKGRFTISRDNAKNTVYLQMNSLKPEDTAVYYCNADDDVTYFTYYSGGLYYWGQGTQVTVSS | low polyreactivity

Row | Sequence | polyreactivity (PSR sort gate)
23 | QVQLVESGGGLVQAGGSLRLSCAASGRNFRRYAMGWYRQAPGKERELVATISGSGTSTYYADSVKGRFTISRDNAKNTVYLQMNSLKPEDTAVYYCAAGNPYYRTSQYYHWGQGTQVTVSS | high polyreactivity
24 | QVQLVESGGGLVQAGGSLRLSCAASGRNFRSYVMGWYRQAPGKERELVASIRNRGGTTYYADSVKGRFTISRDNAKNTVYLQMNSLKPEDTAVYYCNAAPARTVYAQSSYVLYDYWGQGTQVTVSS | low polyreactivity
25 | QVQLVESGGGLVQAGGSLRLSCAASGRNFRTNAMGWYRQAPGKERELVAAITWRGGNTYYADSVKGRFTISRDNAKNTVYLQMNSLKPEDTAVYYCATAYRYYPSPYDYWGQGTQVSVSS | high polyreactivity
26 | QVQLVESGGGLVQAGGSLRLSCAASGRNFSANAMGWYRQAPGKEREMVATISSGGRTNYADSVKGRFTISRDNAKNTVYVQMNSLKPEDTAVYYCAKRGPYNRWYGRYDYWGQGTQVTVSS | low polyreactivity
27 | QVQLVESGGGLVQAGGSLRLSCAASGRNFSHNAMGWYRQAPGKERELVAAISSRAGRTYADSVKGRFTISRDNAKYTVYLQMNSLKQEDTGVYYCAVRSKGKDVGYWGQGTQVTVSS | high polyreactivity
28 | QVQLVESGGGLVQAGGSLRLSCAASGRNFSRNAMGWYRQAPGKERELVAAISSGGRTKYADSVKGRFTISRDNAKNTVYLQMNSLKPEDTAVYYCAATDPRSWYGRGRYDYWGQGTQVTVSS | high polyreactivity
29 | QVQLVESGGGLVQAGGSLRLSCAASGRNFSSYALGWYRQAPGKERELVAAIRYDAGSTYYADSVKGRFTISRDNAKNTVYLQMNSLKPEDTAVYYCAAGIYSSRHSPYGYWGQGTQVTVSS | high polyreactivity
30 | QVQLVESGGGLVQAGGSLRLSCAASGRNFYTYTMGWYRQAPGKERELVAAISKSGTSTYYADSVKGRFTISRDNAKNTVYLQMTSLKPEDSAVYYCAARAYYARFLMGYWGQGTQVTVSS | high polyreactivity
31 | QVQLVESGGGLVQAGGSLRLSCAASGRNFYYYAMGWSRQAPGKERELVAAISWSGGSTRYADSVKGRFTISRDNPKNTVYLQMNSLKPEDTAVYYCAAEPDYWVGWIRYDYWGQGTQVTVSS | low polyreactivity
32 | QVQLVESGGGLVQAGGSLRLSCAASGRNFYYYTMGWYRQAPGKERALVASISQSGARTYYADSVKGRFTISRDNSKNTVYLQMNSLKPVYTAVYYCNAVGTGGYHYWGQGTQVTVSS | high polyreactivity
33 | QVQLVESGGGLVQAGGSLRLSCAASGRNIHFNAMGWYRQAPGKERELVAGITFIGTSTYYADSVKGRFTISRDNAKNTVYLQMNSLKPDDTAVYYFAASAVALPYYAGDYDYWGQATQVTVSS | low polyreactivity
34 | QVQLVESGGGLVQAGGSLRLSCAASGRNIYSNAMGWYRQAPGKERELVAAIRWRDGATYYADSVKGRFTISRDNAKNTVYLQMNSLKPEDTAVYYCAAVYWGEEYEYWGQGTQVTVSS | low polyreactivity
35 | QVQLVESGGGLVQAGGSLRLSCAASGRNLIAYAMGWYRQAPGKEREFVAAIRADDGRTYYADSVKGRFTISRDNAKITVYLQMTSLKPEDTAVYYCAAEWYWLHSWFDYWGQGTQVTVSS | high polyreactivity
36 | QVQLVESGGGLVQAGGSLRLSCAASGRNLLGNAMGGYRQAPGKEREFVAAISYRGGSTYYADSVKGRFTISRDNEKNTVYLQMNSLKPVDNAVPYCAASSLKYSRFDYGGQGTQVTVSS | low polyreactivity
37 | QVQLVESGGGLVQAGGSLRLSCAASGRNLYYNAMGWYRHAPGKERELVAAITFRGGSTSYADSVKGRFTISRDNAKNTVYLQMNSLKPEDTAVYYCAAGYTWRQSWYPFDYWGQGTQVTVSS | high polyreactivity
38 | QVQLVESGGGLVQAGGSLRLSCAASGRPFDSNAMGWYRQGPGKERELVAAISYGCGTTHYADSVKGRFTISRDNAKNTVYLQMNSLKPEDTAVYYCAADPELQWESVTIGEYDYWGQGTQVTVSS | low polyreactivity
39 | QVQLVESGGGLVQAGGSLRLSCAASGRPFVSYALGWYRQAPGKERELVAVITGGTGNTYYADSVKGRFTISRDNAKNTVYLQMNSLIPEDTAVYYCNARGGYYKFRYPLYYWGQVTQVTVSS | high polyreactivity
40 | QVQLVESGGGLVQAGGSLRLSCAASGRSFGTNAMVSYIQAPGKEREFVAAIRKSGATTYYADSVKGRFTISRDNAKNTVYLQMNSLKPDDTAVYYCAADFFYYGKWYSGYYWGQGTQVTVSS | high polyreactivity
41 | QVQLVESGGGLVQAGGSLRLSCAASGRSFTSNTMGWYRPAPGKERELVAAITSSGGSMYYADSVKGRFTISRDNANNTVYLQMNSLKPEDTAVYYCAADTIGYHYWYDYWGQGTQVTVSS | low polyreactivity
42 | QVQLVESGGGLVQAGGSLRLSCAASGRSFVLYTMGWSRQAPGKEREWVAAISGSGGRTYYADSVKGRFTISRDHAKNTVNLQMNSLKPEDTAVYYCAAYGQGLPLYGYWGPGTQVTVSS | high polyreactivity
43 | QVQLVESGGGLVQAGGSLRLSCAASGRSFWKYAMGWCRQAPGKERELVAAITSDGSTYYADSVKGRFTISRDNAKNTVYFQMNSLKPEDTADYYCAAQQWFEYDYWGQGTQVTVSS | low polyreactivity
